The record followed here is publication doi:10.1101/2024.12.17.628619 (bioRxiv, 2024).

B1: MBP-AMBRA1^WD40 (residues M1-N204 directly fused to S853-G1044), wild type (domain or fragment, human, UniProt Q9C0C7 1-204, looked up)
chain: MKVVPEKNAVRILWGRERGARAMGAQRLLQELVEDKTRWMKWEGKRVELPDSPRSTFLLAFSPDRTLLASTHVNHNIYITEVKTGKCVHSLIGHRRTPWCVTFHPTISGLIASGCLDGEVRIWDLHGGSESWFTDSNNAIASLAFHPTAQLLLIATANEIHFWDWSRREPFAVVKTASEMERVRLVRFDPLGHYLLTAIVNPSNSNIANTTYRLQWWDFTKFDLPEISNASVNVLVQNCKIYNDASCDISADGQLLAAFIPSSQRGFPDEGILAVYSLAPHNLGEMLYTKRFGPNAISVSLSPMGRYVMVGLASRRILLHPSTEHMVAQVFRLQQAHGGETSMRRVFNVLYPMPADQRRHVSINSARWLPEPGLGLAYGTNKGDLVICRPEALNSG
B2: MBP-AMBRA1^WD40 F57A (domain or fragment, human, UniProt Q9C0C7 1-204, looked up)
chain: MKVVPEKNAVRILWGRERGARAMGAQRLLQELVEDKTRWMKWEGKRVELPDSPRSTALLAFSPDRTLLASTHVNHNIYITEVKTGKCVHSLIGHRRTPWCVTFHPTISGLIASGCLDGEVRIWDLHGGSESWFTDSNNAIASLAFHPTAQLLLIATANEIHFWDWSRREPFAVVKTASEMERVRLVRFDPLGHYLLTAIVNPSNSNIANTTYRLQWWDFTKFDLPEISNASVNVLVQNCKIYNDASCDISADGQLLAAFIPSSQRGFPDEGILAVYSLAPHNLGEMLYTKRFGPNAISVSLSPMGRYVMVGLASRRILLHPSTEHMVAQVFRLQQAHGGETSMRRVFNVLYPMPADQRRHVSINSARWLPEPGLGLAYGTNKGDLVICRPEALNSG
B3: MBP-AMBRA1^WD40 W99R (domain or fragment, human, UniProt Q9C0C7 1-204, looked up)
chain: MKVVPEKNAVRILWGRERGARAMGAQRLLQELVEDKTRWMKWEGKRVELPDSPRSTFLLAFSPDRTLLASTHVNHNIYITEVKTGKCVHSLIGHRRTPRCVTFHPTISGLIASGCLDGEVRIWDLHGGSESWFTDSNNAIASLAFHPTAQLLLIATANEIHFWDWSRREPFAVVKTASEMERVRLVRFDPLGHYLLTAIVNPSNSNIANTTYRLQWWDFTKFDLPEISNASVNVLVQNCKIYNDASCDISADGQLLAAFIPSSQRGFPDEGILAVYSLAPHNLGEMLYTKRFGPNAISVSLSPMGRYVMVGLASRRILLHPSTEHMVAQVFRLQQAHGGETSMRRVFNVLYPMPADQRRHVSINSARWLPEPGLGLAYGTNKGDLVICRPEALNSG
B4: MBP-AMBRA1^WD40 H75A/R96A (domain or fragment, human, UniProt Q9C0C7 1-204, looked up)
chain: MKVVPEKNAVRILWGRERGARAMGAQRLLQELVEDKTRWMKWEGKRVELPDSPRSTFLLAFSPDRTLLASTHVNANIYITEVKTGKCVHSLIGHRATPWCVTFHPTISGLIASGCLDGEVRIWDLHGGSESWFTDSNNAIASLAFHPTAQLLLIATANEIHFWDWSRREPFAVVKTASEMERVRLVRFDPLGHYLLTAIVNPSNSNIANTTYRLQWWDFTKFDLPEISNASVNVLVQNCKIYNDASCDISADGQLLAAFIPSSQRGFPDEGILAVYSLAPHNLGEMLYTKRFGPNAISVSLSPMGRYVMVGLASRRILLHPSTEHMVAQVFRLQQAHGGETSMRRVFNVLYPMPADQRRHVSINSARWLPEPGLGLAYGTNKGDLVICRPEALNSG

For the assay, the target named is His6-DDB1 (human, UniProt Q16531 1-1140). In words: SEC + other: negative stain EM.
Sequence of His6-DDB1 (Q16531 whole entry): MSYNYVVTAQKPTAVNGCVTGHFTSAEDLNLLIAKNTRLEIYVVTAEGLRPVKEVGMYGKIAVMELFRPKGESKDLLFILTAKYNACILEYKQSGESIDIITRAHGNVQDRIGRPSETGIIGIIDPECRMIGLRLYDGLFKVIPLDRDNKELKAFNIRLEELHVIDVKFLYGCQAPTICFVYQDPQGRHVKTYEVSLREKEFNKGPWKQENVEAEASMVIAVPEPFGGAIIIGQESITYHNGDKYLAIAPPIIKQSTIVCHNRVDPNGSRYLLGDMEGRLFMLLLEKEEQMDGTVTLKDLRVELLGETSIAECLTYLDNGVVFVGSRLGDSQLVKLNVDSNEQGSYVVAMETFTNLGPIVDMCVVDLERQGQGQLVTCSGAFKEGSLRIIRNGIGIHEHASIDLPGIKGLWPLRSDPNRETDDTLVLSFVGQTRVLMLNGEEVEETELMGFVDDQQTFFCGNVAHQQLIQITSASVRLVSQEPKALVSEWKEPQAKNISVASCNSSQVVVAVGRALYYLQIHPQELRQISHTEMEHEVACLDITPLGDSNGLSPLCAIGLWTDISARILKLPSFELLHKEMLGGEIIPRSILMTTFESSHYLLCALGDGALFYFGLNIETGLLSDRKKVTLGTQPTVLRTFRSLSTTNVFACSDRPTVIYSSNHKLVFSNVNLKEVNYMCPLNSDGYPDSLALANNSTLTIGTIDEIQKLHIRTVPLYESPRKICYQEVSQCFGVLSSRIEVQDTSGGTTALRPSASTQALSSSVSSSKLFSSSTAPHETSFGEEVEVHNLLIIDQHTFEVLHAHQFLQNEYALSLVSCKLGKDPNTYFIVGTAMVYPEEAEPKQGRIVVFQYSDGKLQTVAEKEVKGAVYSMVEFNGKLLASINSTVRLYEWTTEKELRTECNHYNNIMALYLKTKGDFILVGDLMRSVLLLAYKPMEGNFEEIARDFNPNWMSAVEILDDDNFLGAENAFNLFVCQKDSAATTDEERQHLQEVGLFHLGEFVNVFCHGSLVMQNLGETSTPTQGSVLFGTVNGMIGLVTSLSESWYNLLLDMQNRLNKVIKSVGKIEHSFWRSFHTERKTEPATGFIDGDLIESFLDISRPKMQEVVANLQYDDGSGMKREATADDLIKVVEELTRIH
B1: the binding result is given as “binds”.

As to B2, the binding result is “binds”.

In the case of B3, the binding result is reported as “binds”.

B4: the binding result is given as “binds”.
